According to US20190071490A1, “Preventing Post-Ictal Headaches” (Beth Israel Deaconess Medical Center, Inc., priority 2017, published 2019):

T1: human α-CGRP (Homo sapiens, UniProt P06881)
T1 construct: 1-37 (WT); purchased GenScript Corporation or Global Peptide Services
T1 sequence (P06881 83-119 limits assumed): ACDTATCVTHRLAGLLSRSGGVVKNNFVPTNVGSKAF

T2: rat α-CGRP (Rattus norvegicus, UniProt P01256)
T2 construct: rat α (1-37); purchased GenScript Corporation or Global Peptide Services
T2 sequence (P01256 83-119 limits assumed): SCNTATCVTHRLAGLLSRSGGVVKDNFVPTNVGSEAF


Tests used:
[1] = molecular target: T1, human α-CGRP; experiment: Biacore SPR affinity of Fab fragments to N-biotinylated human α-CGRP on SA chip; type: binding; details: 37° C., screening mode except underlined values
Procedure, shortened: (§1)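 HBS-EP pH 7.4 running buffer at 25° C. or 37° C.; N-biotinylated CGRP captured on streptavidin SA chip (<50 RU for kinetics), Fab titrated over surface with regeneration by 25 mM NaOH/25% ethanol. Titrations globally fit to 1:1 Langmuir model; KD=koff/kon, with 2-hour dissociation for very slow off-rates.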

[2] = molecular target: T2, rat α-CGRP; experiment: Biacore SPR affinity of Fab fragments to N-biotinylated rat α-CGRP on SA chip; type: binding; details: 37° C., screening mode except underlined values
Procedure, shortened: as §1

| α-human koff [1] [s⁻¹] | α-rat koff [2] [s⁻¹] | Molecule |
| --- | --- | --- |
| 0.000646 | 0.00217 | M34: G1 variant; L1 R28N T30G; H2 E54K A57N S58T; HC-FW3 L99T A100V (antibody, V domains shown) VH: EVQLVESGGGLVQPGGSLRLSCAASGFTFSNYWISWVRQAPGKGLEWVAEIRSKSDNTATHYAEAVKGRFTISRDNAKNSLYLQMNSLRAEDTAVYYCTVYFDYGLAIQNYWGQGTLVTVSS VL: EIVLTQSPATLSLSPGERATLSCKASKNVGTYVSWYQQKPGQAPRLLIYGASNRYLGIPARFSGSGSGTDFTLTISSLEPEDFAVYYCSQSYNYPYTFGQGTKLEIK |
| 0.000339 | 0.00399 | M35: G1 variant; L1 R28N T30G; H2 E54K A57S; HC-FW3 L99T A100V (antibody, V domains shown) VH: EVQLVESGGGLVQPGGSLRLSCAASGFTFSNYWISWVRQAPGKGLEWVAEIRSKSDSSATHYAEAVKGRFTISRDNAKNSLYLQMNSLRAEDTAVYYCTVYFDYGLAIQNYWGQGTLVTVSS VL: EIVLTQSPATLSLSPGERATLSCKASKNVGTYVSWYQQKPGQAPRLLIYGASNRYLGIPARFSGSGSGTDFTLTISSLEPEDFAVYYCSQSYNYPYTFGQGTKLEIK |
| 0.000239 | 0.00479 | M36: G1 variant; L1 R28N T30R; HC-FW3 L99T A100V (antibody, V domains shown) VH: EVQLVESGGGLVQPGGSLRLSCAASGFTFSNYWISWVRQAPGKGLEWVAEIRSESDASATHYAEAVKGRFTISRDNAKNSLYLQMNSLRAEDTAVYYCTVYFDYGLAIQNYWGQGTLVTVSS VL: EIVLTQSPATLSLSPGERATLSCKASKNVRTYVSWYQQKPGQAPRLLIYGASNRYLGIPARFSGSGSGTDFTLTISSLEPEDFAVYYCSQSYNYPYTFGQGTKLEIK |
| 0.000226 | 0.00145 | M37: G1 variant; L1 R28N T30S; H2 A57G; HC-FW3 L99T A100V (antibody, V domains shown) VH: EVQLVESGGGLVQPGGSLRLSCAASGFTFSNYWISWVRQAPGKGLEWVAEIRSESDGSATHYAEAVKGRFTISRDNAKNSLYLQMNSLRAEDTAVYYCTVYFDYGLAIQNYWGQGTLVTVSS VL: EIVLTQSPATLSLSPGERATLSCKASKNVSTYVSWYQQKPGQAPRLLIYGASNRYLGIPARFSGSGSGTDFTLTISSLEPEDFAVYYCSQSYNYPYTFGQGTKLEIK |
| 0.000218 | 0.00511 | M38: G1 variant; L1 R28N T30W; HC-FW3 L99T A100V (antibody, V domains shown) VH: EVQLVESGGGLVQPGGSLRLSCAASGFTFSNYWISWVRQAPGKGLEWVAEIRSESDASATHYAEAVKGRFTISRDNAKNSLYLQMNSLRAEDTAVYYCTVYFDYGLAIQNYWGQGTLVTVSS VL: EIVLTQSPATLSLSPGERATLSCKASKNVWTYVSWYQQKPGQAPRLLIYGASNRYLGIPARFSGSGSGTDFTLTISSLEPEDFAVYYCSQSYNYPYTFGQGTKLEIK |
| 0.000425 | 0.00995 | M39: G1 variant; L1 R28N; L2 G50A L56T; H2 A57N S58Y; HC-FW3 L99T A100V (antibody, V domains shown) VH: EVQLVESGGGLVQPGGSLRLSCAASGFTFSNYWISWVRQAPGKGLEWVAEIRSESDNYATHYAEAVKGRFTISRDNAKNSLYLQMNSLRAEDTAVYYCTVYFDYGLAIQNYWGQGTLVTVSS VL: EIVLTQSPATLSLSPGERATLSCKASKNVTTYVSWYQQKPGQAPRLLIYAASNRYTGIPARFSGSGSGTDFTLTISSLEPEDFAVYYCSQSYNYPYTFGQGTKLEIK |
| 0.00128 | 0.36 | M40: G1 variant; L1 R28N; L2 G50A L56T; H2 E54K A57L; HC-FW3 L99T A100V (antibody, V domains shown) VH: EVQLVESGGGLVQPGGSLRLSCAASGFTFSNYWISWVRQAPGKGLEWVAEIRSKSDLSATHYAEAVKGRFTISRDNAKNSLYLQMNSLRAEDTAVYYCTVYFDYGLAIQNYWGQGTLVTVSS VL: EIVLTQSPATLSLSPGERATLSCKASKNVTTYVSWYQQKPGQAPRLLIYAASNRYTGIPARFSGSGSGTDFTLTISSLEPEDFAVYYCSQSYNYPYTFGQGTKLEIK |
| 0.00021 | 0.00453 | M41: G1 variant; L1 R28N; L2 G50A L56T; H2 E54K A57N E64D; HC-FW3 L99T A100V (antibody, V domains shown) VH: EVQLVESGGGLVQPGGSLRLSCAASGFTFSNYWISWVRQAPGKGLEWVAEIRSKSDNSATHYADAVKGRFTISRDNAKNSLYLQMNSLRAEDTAVYYCTVYFDYGLAIQNYWGQGTLVTVSS VL: EIVLTQSPATLSLSPGERATLSCKASKNVTTYVSWYQQKPGQAPRLLIYAASNRYTGIPARFSGSGSGTDFTLTISSLEPEDFAVYYCSQSYNYPYTFGQGTKLEIK |
| 0.000417 | 0.00752 | M42: G1 variant; L1 R28N; L2 G50A L56T; H2 E54K A57N H61F; HC-FW3 L99T A100V (antibody, V domains shown) VH: EVQLVESGGGLVQPGGSLRLSCAASGFTFSNYWISWVRQAPGKGLEWVAEIRSKSDNSATFYAEAVKGRFTISRDNAKNSLYLQMNSLRAEDTAVYYCTVYFDYGLAIQNYWGQGTLVTVSS VL: EIVLTQSPATLSLSPGERATLSCKASKNVTTYVSWYQQKPGQAPRLLIYAASNRYTGIPARFSGSGSGTDFTLTISSLEPEDFAVYYCSQSYNYPYTFGQGTKLEIK |
| 0.000263 | 0.00453 | M43: G1 variant; L1 R28N; L2 G50A L56T; H2 E54K A57N S58C; HC-FW3 L99T A100V (antibody, V domains shown) VH: EVQLVESGGGLVQPGGSLRLSCAASGFTFSNYWISWVRQAPGKGLEWVAEIRSKSDNCATHYAEAVKGRFTISRDNAKNSLYLQMNSLRAEDTAVYYCTVYFDYGLAIQNYWGQGTLVTVSS VL: EIVLTQSPATLSLSPGERATLSCKASKNVTTYVSWYQQKPGQAPRLLIYAASNRYTGIPARFSGSGSGTDFTLTISSLEPEDFAVYYCSQSYNYPYTFGQGTKLEIK |
| 0.00021 | 0.00613 | M44: G1 variant; L1 R28N; L2 G50A L56T; H2 E54K A57N S58E; HC-FW3 L99T A100V (antibody, V domains shown) VH: EVQLVESGGGLVQPGGSLRLSCAASGFTFSNYWISWVRQAPGKGLEWVAEIRSKSDNEATHYAEAVKGRFTISRDNAKNSLYLQMNSLRAEDTAVYYCTVYFDYGLAIQNYWGQGTLVTVSS VL: EIVLTQSPATLSLSPGERATLSCKASKNVTTYVSWYQQKPGQAPRLLIYAASNRYTGIPARFSGSGSGTDFTLTISSLEPEDFAVYYCSQSYNYPYTFGQGTKLEIK |
| 0.000211 | 0.00558 | M45: G1 variant; L1 R28N; L2 G50A L56T; H2 E54K A57N S58E E64D; HC-FW3 L99T A100V (antibody, V domains shown) VH: EVQLVESGGGLVQPGGSLRLSCAASGFTFSNYWISWVRQAPGKGLEWVAEIRSKSDNEATHYADAVKGRFTISRDNAKNSLYLQMNSLRAEDTAVYYCTVYFDYGLAIQNYWGQGTLVTVSS VL: EIVLTQSPATLSLSPGERATLSCKASKNVTTYVSWYQQKPGQAPRLLIYAASNRYTGIPARFSGSGSGTDFTLTISSLEPEDFAVYYCSQSYNYPYTFGQGTKLEIK |
